Assay results: article PMC8744954

What was measured:
Jun (Homo sapiens) = Jun (Homo sapiens) (UniProt P05412); conditions: cited from earlier work
[1] = target: p53 proteins tested (wild type p53 and 46 common clinical mutants); experiment: SPR; NAPPA-SPRi: p53 proteins with GST-E-coil translated in situ and captured by K-coil peptide on a gold slide; purified full-length MDM2 20 μg/mL injected at 3 μL/s; running buffer 1x PBS, 1% Tween 20; 1:1 fit with Scrubber 2.0; apparent constants

Sequence of UniProt P05412 (P05412 whole entry): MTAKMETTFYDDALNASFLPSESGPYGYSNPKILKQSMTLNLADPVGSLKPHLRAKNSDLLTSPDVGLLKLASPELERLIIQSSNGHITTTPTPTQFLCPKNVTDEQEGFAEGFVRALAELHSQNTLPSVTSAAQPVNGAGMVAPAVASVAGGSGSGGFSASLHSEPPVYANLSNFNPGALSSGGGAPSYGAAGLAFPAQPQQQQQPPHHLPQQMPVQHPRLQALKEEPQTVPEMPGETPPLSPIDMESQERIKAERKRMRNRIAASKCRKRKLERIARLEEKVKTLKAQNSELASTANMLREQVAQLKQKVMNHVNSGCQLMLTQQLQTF

Fos (from UniProt P01100)
Kd (Jun (Homo sapiens)): 1 nM

MDM2, full-length purified recombinant (from UniProt Q00987 1-491) (natural protein)
Kd [1]: 2.85 to 1350 nM | median KD [1]: 105 nM
